Experimental data taken from article PMC4499774.

Biological target: GST-MED4 CsoS2 (pFC005) (Prochlorococcus marinus str. MED4)
Test: pull-down; E. coli co-expressing GST-MED4 CsoS2 (pFC005) with CsoS1 and CsoS1D (pFC119); Glutathione-Sepharose magnetic beads; elution by SDS-PAGE, densitometry and Western blot

GST-MED4 CsoS2 (pFC005) (Prochlorococcus marinus str. MED4), sequence (Q7V2C8 whole entry): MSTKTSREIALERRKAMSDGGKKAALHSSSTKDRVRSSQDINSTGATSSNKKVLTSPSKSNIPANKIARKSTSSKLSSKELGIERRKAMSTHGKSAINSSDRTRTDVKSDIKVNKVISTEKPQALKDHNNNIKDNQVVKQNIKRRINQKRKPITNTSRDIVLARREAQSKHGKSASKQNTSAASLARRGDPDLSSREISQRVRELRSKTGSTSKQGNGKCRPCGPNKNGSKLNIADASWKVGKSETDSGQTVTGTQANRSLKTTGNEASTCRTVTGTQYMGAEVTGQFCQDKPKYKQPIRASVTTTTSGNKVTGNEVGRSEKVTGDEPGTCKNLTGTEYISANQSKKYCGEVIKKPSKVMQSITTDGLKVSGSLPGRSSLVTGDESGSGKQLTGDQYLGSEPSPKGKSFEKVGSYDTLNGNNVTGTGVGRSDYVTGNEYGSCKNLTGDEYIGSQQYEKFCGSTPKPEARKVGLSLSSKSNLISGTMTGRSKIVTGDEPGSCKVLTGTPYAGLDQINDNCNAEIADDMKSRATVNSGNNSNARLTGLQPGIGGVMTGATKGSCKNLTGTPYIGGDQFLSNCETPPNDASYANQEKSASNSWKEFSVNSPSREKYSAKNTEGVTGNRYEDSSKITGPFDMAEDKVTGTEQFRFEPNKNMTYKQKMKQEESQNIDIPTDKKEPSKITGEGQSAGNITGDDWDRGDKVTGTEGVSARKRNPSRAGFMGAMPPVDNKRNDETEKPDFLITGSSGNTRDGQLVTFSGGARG

B1: MED4 CsoS1D co-expressed with GST-MED4 CsoS2 (pFC119) (natural protein)
chain: MEPTSSLNRGDRKKGSSLVTGSEVQSQSNGASCFITTDSEKSLVSRQASQVEQIELRTYVFLDSLQPQLAAYMGTVSRGFLPIPGDSCLWMEVSPGMAVHRVTDIALKASNVRLGQMIVERAFGSLALYHKDQSTVLHSGDVVLDAIGSEVRKRTKPSTSWTEVICAITPDHAVLINRQNRSGSMIQSGMSMFILETEPAGYVLKAANEAEKSANITIIDVKAVGAFGRLTLAGKEGDVEEAAAAAIRAIDQISNY
molar ratio of CsoS1D to GST-CsoS2 in the elution fraction (densitometry): 5 molar ratio
